The target in this assay is T1, MBP-8xHis-1SCC (semi-synthetic Ribonuclease, PDB ID 1SSC) (UniProt P61823 27-138).
T1 construct: also called psfRNAseA; psfRNAseA-c001; source: E. coli BL21 (DE3) T1R, purified (IMAC, size exclusion chromatography)
T1 sequence: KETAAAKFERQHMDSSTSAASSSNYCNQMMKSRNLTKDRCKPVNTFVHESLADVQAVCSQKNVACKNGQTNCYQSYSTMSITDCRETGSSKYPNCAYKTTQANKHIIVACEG
As to the kind of experiment: SPR; MBP-8xHis-1SCC immobilised to about 12000 RU by amine coupling (EDC/NHS) on a Series S CM5 chip, Biacore 8K; peptides as analytes, single-cycle kinetics (2, 10, 50 μM; or 3.125-50 μM in five steps); 25 °C; HBS-P+ (10 mM HEPES pH 7.4, 150 mM NaCl, 0.05% Tween-20); 30 μL/min, 120 s association, 1800 s dissociation; 1:1 binding model. The following applies: both partners purified. On the technique in general: Surface plasmon resonance follows binding to a sensor surface in real time, without labels.

Where “and” joins values, the source holds several entries; their conditions need not be identical. Equal values may be shown once.

From publication doi:10.1101/2024.06.20.599739, “Design of linear and cyclic peptide binders of different lengths from protein sequence information” (bioRxiv, 2024) come the findings set out here.

B1: known peptide binder (11 residues) of the semi-synthetic Ribonuclease (peptide)
peptide: PYVPVHFDASV
notes: C-terminal stretch of ribonuclease A, the peptide chain of PDB 1SSC; also called wildtype (WT) linear peptide; wild-type peptide; source: synthetic peptide
As usually defined, the Kd is the concentration at which binding is half-saturated. A lower Kd goes with higher affinity. Consider B1, for which the Kd is 35 nM and 25 nM.
